Data set [1] can be described thus: Thermal stability of gold clusters. The format is physicochemical. The settings on record: 100° C.
Data set [2] can be described thus: Toxicity of radioactive gold clusters (no antibody) in healthy mice. The note with it: tail vein; 7.8, 12.6 or 24 μg gold metal; 2 or 24 hours.
Protocol: The folowing in vivo tests in mice assess both biodistribution with time and toxicity.
Various doses of gold cluster were injected into the tail vein of healthy mice: cluster containing 7.8 μg of gold metal into one group, 12.6 μg into another and 24 μg into the third. Each group consisted of 6 animals, for a total of 18 mice. Three mice from each group were sacrificed after 2 hours and the remaining 3 were terminated after 24 hours in order to determine the biodistribution in different organs as a function of time.
For data set [3], the system named is human colon carcinoma cells (LS180).
Protocol: (§3) The 17-1A Fab' fragment-(radioactive gold)-undecagold cluster conjugate was incubated in vitro with tumor cells (LS180- a cell culture of human colon carcinoma) and non tumor cells (WM164 - a cell culture of melanoma as control) and the radioactivity of the gold was used to assay binding.
(§4) bound to cells after incubation and washing.
(§5) entry is an average (+ s.d.) of 2 samples.
Data set [4] is described as follows: Biodistribution of radioactive gold clusters (no antibody) in healthy mice. The format is in vivo. The method, then: Typically the blood had 2.8%, the spleen 0.4%, the stomach 0.4%, kidney 5.1%, bone 2.5%, gut and feces 3.3%, liver 19.3% and, carcass 13.7% of the injected amount after 24 hours. These numbers are % counts per organ normalized to 25 gm mice.

Data set [5] has as its system melanoma cells (WM164).
Protocol: as §3, §4, §5
A short description of data set [6]: Biodistribution of radioactive gold clusters (no antibody) in healthy mice. The format is in vivo. The note with it: after 2 hours, tail vein.
Data set [7] can be described thus: Stability of photocrosslinked Au13 cluster to KCN (optical density at 346 and 420 nm). The format is physicochemical. The note with it: 100 μl of cluster (1 μMolar) with 20 μl of 0.1M KCN. The method, then: Two nmol of the Au13 [P(PhCONH(CH2)3 NH2)3 ]10 cluster in 0.1M sodium citrate buffer, pH 5, was incubated with the crosslinking reagent, N-hydroxysuccinimidyl-4-azidosalicylic acid (NHS-ASA). A range of amounts was tried, from 1 to 100-fold molar excess over the number of amines in the cluster. Incubation was carried out in the dark for 30 min. The solution was exposed to UV light (Ultraviolet Products Inc., Lamp R-52) at 4 cm for 5 min. The product was purified on a 0.66×50 cm column of GH-25 (Amicon) using the buffer 0.36M triethylammonium bicarbonate/70% methanol in water. Alternately, these last two steps were reversed so that unreacted crosslinker was removed on the column before UV treatment.
The crosslinked cluster stability was quantitated by observing the decrease in optical density at 346 and 420 nm in a spectrophotometer at regular intervals after adding KCN or glutathione. One hundred μl of cluster (1 μMolar) was mixed with 20 μl of 0.1M KCN. […] Noncrosslinked cluster was completely destroyed after 2 min under these conditions.
A longer photocrosslinking reagent was also used, sulfosuccinimidyl 6-(4'-azido-2'-nitrophenylamino) hexanoate (sulfo-SANPAH). The procedure was identical to that described above. For 100-fold initial excess of crosslinker, the resulting cluster product was 100% stable to KCN indefinitely, whereas uncrosslinked cluster was completely destroyed in 2 min.

Data set [8] in a line: Chemical stability of derivatized Au13 cluster.
The test system of data set [9] is colorectal carcinoma cells. Kind of data set: In vitro test of Fab'-Au11 with colorectal carcinoma cells, radiolabeled second antibody. The format is cell-based, human. How it is done:
(§1) The antibody used is "17-1A", commercially available from Centocor, Inc. These antibody-cluster conjugates were also assayed by electron microscopy, high pressure liquid chromatography, and spectroscopy and appeared to follow the normal course of results indicated in Examples 4 and 5. The number of gold clusters bound to each Fab' in this example was 0.7-1.0.
(§2) The in vitro test involved incubating the Fab'-Au11 with either colorectal carcinoma cells or a control melanoma for one hour, centrifugation to isolate the cell-bound antibody, and assay of the bound antibody with a second antibody [to F(ab')2 ] which was itself radiolabeled with iodine. A titer curve was produced.

The test system of data set [10] is melanoma cells (WM164). Kind of data set: In vitro cell binding of 17-1A-Au11 conjugates, control melanoma (radioactivity of gold). The settings on record: percent of applied radioactive gold bound after incubation and washing; average ± s.d. of 2 samples.
Protocol: as §3, §4, §5
A further data set has as its system control melanoma. Kind of data set: In vitro test of Fab'-Au11 with control melanoma, radiolabeled second antibody. The format is cell-based. The note with it: preliminary in vitro testing, 17-1A. How it is done: as §1, §2
Another data set deals with human colon carcinoma. Kind of data set: In vivo biodistribution of radiogold cluster 17-1A conjugates in nude mice bearing human tumors. The settings on record: 24 hr after injection. How it is done:
Nude mice bearing human colon carcinoma or melanoma tumors were injected with radioactive gold clusters conjugated to anti-tumor antibodies. Two antibodies were gold labeled, one (17-1A) against the human colon carcinoma and another non-relevant antibody, H2 4B5 anti-influenza. The non-relevant tumor (melanoma) and non-relevant gold conjugated antibody (H2 4B5) served as controls. A total of 53 mice were used. In order to assess the efficacy of using gold labeled Fab' versus whole IgG, both types of antibody were labeled and tested. In addition, two crosslinking arms between the gold cluster and antibody were used, one, as described in the preparation example, was N-methoxycarbonyl maleimide (NMCM), whereas the other was n-maleimidobenzoyl-N-hydroxysuccinimide ester (MBS), This was to test if a different covalent crosslinker between the gold cluster and antibody or antibody fragment yielded conjugates with different stabilities or body distributions in vivo.
In vivo biodistribution of radiogold cluster 17-1A conjugates. Data,
after injection is expressed in % of injected dose per gram of tissue.
Tumor to normal tissue ratios are given in parentheses. Three or four
sample were averaged; normalized to 25 g animals.

The test system of data set [11] is human colon carcinoma cells (LS180). The data set can be described thus: In vitro cell binding of 17-1A-Au11 conjugates, human colon carcinoma (radioactivity of gold).
Protocol: as §3, §4, §5
Setting [12] is: 24 hours, % counts per organ normalized to 25 gm mice.

Where two headings read alike, the source gives them in different places.

As to “Au11 [P(C6 H4 CONHR)3 ]7^3+ where 20 R groups are CH3 and one is (CH2)3 N(CO2)(CH2)”, the “stability at 100° C.” value in [1] is on record as “perfectly stable”. Besides, the “death or unusual reaction during or following injection” value in data set [2] is “no mice died or reacted unusually”. Moreover, the “% bound to tumor cells (human colon carcinoma)” value in data set [3] was found to be 0.54 ± 0.04%. In addition, in data set [4] (setting [12]), the “blood, % of the injected amount” value amounted to 2.8%; the “bone, % of the injected amount” value is given as 2.5%; the “carcass, % of the injected amount” value turned out to be 13.7%; the “gut and feces, % of the injected amount” value worked out at 3.3%. Also, in [4] (setting [12]), the “kidney, % of the injected amount” value is recorded as 5.1%; the “liver, % of the injected amount” value worked out at 19.3%; the “spleen, % of the injected amount” value is 0.4%; the “stomach, % of the injected amount” value was determined as 0.4%. Also, the clusters excreted in data set [4] (after 24 hours, tail vein) came to 56%. In the data set with melanoma cells (WM164) [5], the “% bound to control cells (melanoma)” value amounted to 0.51 ± 0.06%. In addition, the clusters excreted in data set [6] is 44%.
Consider “Au13 [P(PhCONH(CH2)3 NH2)3 ]10 [derivatized Au13 cluster]”, for which the “time to complete destruction in KCN” value in data set [7] worked out at 2 min. For the same molecule, the “stability upon addition of 1M KCN” value in data set [8] is given as “degraded”.

B1: Fab'-Au11: 17-1A monoclonal antibody Fab' fragment covalently coupled to the undecagold cluster (radioactive gold in Tables 1 and 2) (conjugate, chains of the INN, looked up)
VH: QVQLQQSGAELVRPGTSVKVSCKASGYAFTNYLIEWVKQRPGQGLEWIGVINPGSGGTNYNEKFKGKATLTADKSSSTAYMQLSSLTSDDSAVYFCARDGPWFAYWGQGTLVTVSA
VL: NIVMTQSPKSMSMSVGERVTLTCKASENVVTYVSWYQQKPEQSPKLLIYGASNRYTGVPDRFTGSGSATDFTLTISSVQAEDLADYHCGQGYSYPYTFGGGTKLEIK
modifications: Fab' undecagold cluster label
For B1, the “antibody activity and specificity” value in data set [9] (one hour incubation, titer curve) was “antibody activity and specificity were preserved”. Besides, the “specificity for the tumor” value in data set [9] (preliminary in vitro testing, 17-1A) is “retains its specificity for the tumor”. Also, the “% bound to control cells (melanoma)” value with melanoma cells (WM164) [10] stood at 1.92 ± 0.17%. For the same molecule, in the data set with control melanoma, the “binding to a control melanoma” value is reported as “does not bind to a control melanoma”. Besides, in the data set on human colon carcinoma, the “Tumor to normal tissue ratio, blood” value is listed as 1.9; the “Tumor to normal tissue ratio, bone” value was determined as 6.6; the “Tumor to normal tissue ratio, gut” value is listed as 5; the “Tumor to normal tissue ratio, heart” value worked out at 3.7. In addition, in the data set on human colon carcinoma, the “Tumor to normal tissue ratio, kidneys” value came out at 0.06; the “Tumor to normal tissue ratio, liver” value stood at 1.0; the “Tumor to normal tissue ratio, lung” value is given as 2.5; the “Tumor to normal tissue ratio, muscle” value came to 13.2. In the data set with human colon carcinoma, the “Tumor to normal tissue ratio, spleen” value was 2.3 and the “Tumor to normal tissue ratio, stomach” value was 11.2. In the data set with human colon carcinoma (normalized to 25 g animals), the “blood, % of injected dose per gram of tissue” value is 3.4 ± 0.3 % of injected dose per gram of tissue; the “bone, % of injected dose per gram of tissue” value is reported as 0.97 ± 0.02 % of injected dose per gram of tissue; the “gut, % of injected dose per gram of tissue” value is on record as 1.3 ± 0.1 % of injected dose per gram of tissue; the “heart, % of injected dose per gram of tissue” value was 1.7 ± 0.1 % of injected dose per gram of tissue. Also, in the data set with human colon carcinoma (normalized to 25 g animals), the “kidneys, % of injected dose per gram of tissue” value is given as 103.0 ± 32 % of injected dose per gram of tissue; the “liver, % of injected dose per gram of tissue” value is given as 5.6 ± 0.5 % of injected dose per gram of tissue; the “lung, % of injected dose per gram of tissue” value is reported as 2.5 ± 0.04 % of injected dose per gram of tissue; the “muscle, % of injected dose per gram of tissue” value is listed as 0.48 ± 0.06 % of injected dose per gram of tissue. Also, in the data set on human colon carcinoma (normalized to 25 g animals), the “spleen, % of injected dose per gram of tissue” value is reported as 2.8 ± 0.4 % of injected dose per gram of tissue; the “stomach, % of injected dose per gram of tissue” value is reported as 0.57 ± 0.14 % of injected dose per gram of tissue; the “tumor, % of injected dose per gram of tissue” value was 6.4 ± 1.1 % of injected dose per gram of tissue. Besides, the “localization of radioactive gold on tumor cells” value in data set [11] (LS180 cells, in words) is on record as “localized completely on the tumor cells”. In addition, the “% bound to tumor cells (human colon carcinoma)” value in data set [11] (percent of applied radioactive gold bound after incubation and washing, average ± s.d. of 2 samples) is reported as 7.80 ± 0.52%.

For the origin of these results see US5360895A, “Derivatized gold clusters and antibody-gold cluster conjugates” (priority 1992, dated 1994).
